Results taken from article PMC9832388.
Where two headings read alike, the source gives them in different places. Each block holds one substance with its values, some of them ahead of it.

Columns and labels:
C3b [1] = biological target: C3b (UniProt P01024); assay: SPR; BIAcore S200; C3b (800-1000 RU) on a CM5 chip; FH1-4 variants flowed at 20 to 0.3125 µM, 90 s at 30 µL/min; steady state fit, estimated KD; done once in HBST and once in PBST (PBST shown)
C3b [2] = biological target: C3b (UniProt P01024); assay: as above; remark: listed apart in the source
C3b [3] = biological target: C3b (UniProt P01024)
[4] = biological target: C3b:FH complex (C3b with WT FH CCP 1-4) (UniProt P01024); assay: SPR; TMC building, FI variants: FI variants on the inactive (S525A) backbone (125-15.625 nM; 62.5 nM shown) co-injected with FH1-4 at constant concentration (125 nM in the methods, 118 nM in the legend) onto thioester-coupled C3b (1000 RU); PBST + Mg2+
[5] = biological target: C3b:FH complex (C3b with WT FH CCP 1-4) (UniProt P01024)
C3b with FH CCP 1-4 T91S = C3b with FH CCP 1-4 T91S (UniProt P01024); assay: SPR; TMC building, FH variants: FH1-4 (118-14.75 nM) co-injected with 118 nM inactive (S525A) FI onto C3b (1000 RU, thiol/thioester coupled) CM5 chip; PBST + 1 mM MgCl2, 25°C, 2 min at 30 µl/min
C3b with FH CCP 1-4 R83S = C3b with FH CCP 1-4 R83S (UniProt P01024); assay: as above
[6] = biological target: C3b:FH complex (C3b with WT FH CCP 1-4) (UniProt P01024); assay: as above
[7] = biological target: C3b with FH CCP 1-4 R232Q (UniProt P01024); assay: as above
C3b with FH CCP 1-4 P26S = C3b with FH CCP 1-4 P26S (UniProt P01024); assay: as above
[8] = biological target: C3b with FH CCP 1-4 R166W (UniProt P01024); assay: as above
[9] = biological target: C3b:FH complex (C3b with WT FH CCP 1-4) (UniProt P01024); remark: listed apart in the source

C3b, sequence (P01024 23-667, chain 1 of 2): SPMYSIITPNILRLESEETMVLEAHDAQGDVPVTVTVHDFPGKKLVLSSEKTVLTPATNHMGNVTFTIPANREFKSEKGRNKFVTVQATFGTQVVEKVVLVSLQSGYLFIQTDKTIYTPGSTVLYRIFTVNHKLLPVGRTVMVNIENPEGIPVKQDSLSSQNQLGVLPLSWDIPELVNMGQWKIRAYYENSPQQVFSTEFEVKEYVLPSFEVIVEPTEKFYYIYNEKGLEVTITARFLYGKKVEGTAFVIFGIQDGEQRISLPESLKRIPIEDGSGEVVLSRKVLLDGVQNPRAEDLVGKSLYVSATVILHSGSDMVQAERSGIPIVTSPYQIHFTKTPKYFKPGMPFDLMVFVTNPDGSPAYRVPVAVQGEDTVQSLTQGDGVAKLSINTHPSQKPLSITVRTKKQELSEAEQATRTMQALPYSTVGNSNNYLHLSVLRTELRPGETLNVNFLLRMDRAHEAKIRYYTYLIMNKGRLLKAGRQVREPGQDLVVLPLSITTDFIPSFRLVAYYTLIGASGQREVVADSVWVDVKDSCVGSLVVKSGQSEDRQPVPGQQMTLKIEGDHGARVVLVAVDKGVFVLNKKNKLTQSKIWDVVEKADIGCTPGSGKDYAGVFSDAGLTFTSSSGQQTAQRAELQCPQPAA
C3b, sequence (P01024 749-1663, chain 2 of 2): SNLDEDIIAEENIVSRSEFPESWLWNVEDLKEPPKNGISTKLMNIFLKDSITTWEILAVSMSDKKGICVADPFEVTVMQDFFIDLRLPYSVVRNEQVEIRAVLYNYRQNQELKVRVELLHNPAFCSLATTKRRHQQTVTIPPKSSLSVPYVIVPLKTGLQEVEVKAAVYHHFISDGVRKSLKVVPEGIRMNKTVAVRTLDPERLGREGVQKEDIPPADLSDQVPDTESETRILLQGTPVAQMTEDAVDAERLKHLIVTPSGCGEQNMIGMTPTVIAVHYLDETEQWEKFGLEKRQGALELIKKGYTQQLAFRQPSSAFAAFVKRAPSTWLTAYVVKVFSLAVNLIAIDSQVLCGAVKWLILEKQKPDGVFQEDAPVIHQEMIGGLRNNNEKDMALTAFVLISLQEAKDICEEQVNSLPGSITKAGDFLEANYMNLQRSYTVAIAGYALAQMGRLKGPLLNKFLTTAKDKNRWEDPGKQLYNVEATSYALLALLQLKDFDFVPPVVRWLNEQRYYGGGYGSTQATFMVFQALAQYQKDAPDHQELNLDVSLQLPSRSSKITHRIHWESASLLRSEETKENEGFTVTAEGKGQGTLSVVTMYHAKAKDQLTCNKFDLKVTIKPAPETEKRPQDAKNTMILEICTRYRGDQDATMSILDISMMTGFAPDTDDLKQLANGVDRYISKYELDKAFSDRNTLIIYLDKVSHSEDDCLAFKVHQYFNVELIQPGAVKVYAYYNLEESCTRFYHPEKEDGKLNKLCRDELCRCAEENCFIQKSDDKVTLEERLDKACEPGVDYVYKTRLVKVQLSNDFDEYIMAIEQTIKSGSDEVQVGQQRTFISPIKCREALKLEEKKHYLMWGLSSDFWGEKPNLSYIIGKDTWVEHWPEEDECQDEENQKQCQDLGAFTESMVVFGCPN
C3b:FH complex (C3b with WT FH CCP 1-4), sequence (P01024 23-667, chain 1 of 3): as the sequence (P01024 23-667, chain 1 of 2) above
C3b:FH complex (C3b with WT FH CCP 1-4), sequence (P01024 749-1663, chain 2 of 3): as the sequence (P01024 749-1663, chain 2 of 2) above
C3b:FH complex (C3b with WT FH CCP 1-4), sequence (P08603 19-1231, chain 3 of 3, further chain): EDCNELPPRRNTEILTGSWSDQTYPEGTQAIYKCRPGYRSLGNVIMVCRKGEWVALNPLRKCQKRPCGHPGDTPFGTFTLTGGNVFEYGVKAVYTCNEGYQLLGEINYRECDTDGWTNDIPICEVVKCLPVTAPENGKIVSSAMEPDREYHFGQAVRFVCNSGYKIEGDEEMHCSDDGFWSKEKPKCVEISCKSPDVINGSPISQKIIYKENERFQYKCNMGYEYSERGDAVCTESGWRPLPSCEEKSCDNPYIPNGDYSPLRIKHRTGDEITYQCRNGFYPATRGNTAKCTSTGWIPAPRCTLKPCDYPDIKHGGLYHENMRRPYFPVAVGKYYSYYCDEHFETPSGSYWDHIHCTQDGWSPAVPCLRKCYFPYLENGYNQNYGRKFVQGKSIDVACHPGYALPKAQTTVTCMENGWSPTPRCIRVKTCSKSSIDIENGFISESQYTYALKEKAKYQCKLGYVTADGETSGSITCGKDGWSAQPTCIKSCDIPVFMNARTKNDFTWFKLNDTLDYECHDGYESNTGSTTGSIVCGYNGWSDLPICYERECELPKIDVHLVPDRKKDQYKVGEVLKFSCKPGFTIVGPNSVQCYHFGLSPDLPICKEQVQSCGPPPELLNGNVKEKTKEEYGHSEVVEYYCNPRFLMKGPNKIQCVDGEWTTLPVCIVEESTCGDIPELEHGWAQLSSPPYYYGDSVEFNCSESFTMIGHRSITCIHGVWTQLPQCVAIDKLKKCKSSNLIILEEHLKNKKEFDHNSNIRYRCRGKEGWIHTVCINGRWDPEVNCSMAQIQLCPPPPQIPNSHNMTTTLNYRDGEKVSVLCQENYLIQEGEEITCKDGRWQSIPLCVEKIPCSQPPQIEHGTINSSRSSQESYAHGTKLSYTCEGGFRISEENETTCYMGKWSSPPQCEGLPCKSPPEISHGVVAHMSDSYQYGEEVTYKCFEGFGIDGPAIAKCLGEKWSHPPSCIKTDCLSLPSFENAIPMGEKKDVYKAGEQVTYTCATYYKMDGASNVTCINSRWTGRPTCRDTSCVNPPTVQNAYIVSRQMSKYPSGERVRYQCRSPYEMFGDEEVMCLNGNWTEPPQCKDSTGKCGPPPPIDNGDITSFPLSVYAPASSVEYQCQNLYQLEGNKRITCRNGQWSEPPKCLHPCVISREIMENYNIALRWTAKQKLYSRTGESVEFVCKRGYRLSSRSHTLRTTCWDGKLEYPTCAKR
C3b with FH CCP 1-4 P26S, sequence (P01024 23-667, chain 1 of 3): as the sequence (P01024 23-667, chain 1 of 2) above
C3b with FH CCP 1-4 P26S, sequence (P01024 749-1663, chain 2 of 3): as the sequence (P01024 749-1663, chain 2 of 2) above
C3b with FH CCP 1-4 P26S, sequence (P08603 19-1231 P26S, chain 3 of 3, further chain): as the sequence (P08603 19-1231, chain 3 of 3, further chain) above, with P8S counted along it
C3b with FH CCP 1-4 T91S, sequence (P01024 23-667, chain 1 of 3): as the sequence (P01024 23-667, chain 1 of 2) above
C3b with FH CCP 1-4 T91S, sequence (P01024 749-1663, chain 2 of 3): as the sequence (P01024 749-1663, chain 2 of 2) above
C3b with FH CCP 1-4 T91S, sequence (P08603 19-1231 T91S, chain 3 of 3, further chain): as the sequence (P08603 19-1231, chain 3 of 3, further chain) above, with T73S counted along it
C3b with FH CCP 1-4 R166W, sequence (P01024 23-667, chain 1 of 3): as the sequence (P01024 23-667, chain 1 of 2) above
C3b with FH CCP 1-4 R166W, sequence (P01024 749-1663, chain 2 of 3): as the sequence (P01024 749-1663, chain 2 of 2) above
C3b with FH CCP 1-4 R166W, sequence (P08603 19-1231 R166W, chain 3 of 3, further chain): as the sequence (P08603 19-1231, chain 3 of 3, further chain) above, with R148W counted along it
C3b with FH CCP 1-4 R232Q, sequence (P01024 23-667, chain 1 of 3): as the sequence (P01024 23-667, chain 1 of 2) above
C3b with FH CCP 1-4 R232Q, sequence (P01024 749-1663, chain 2 of 3): as the sequence (P01024 749-1663, chain 2 of 2) above
C3b with FH CCP 1-4 R232Q, sequence (P08603 19-1231 R232Q, chain 3 of 3, further chain): as the sequence (P08603 19-1231, chain 3 of 3, further chain) above, with R214Q counted along it
C3b with FH CCP 1-4 R83S, sequence (P01024 23-667, chain 1 of 3): as the sequence (P01024 23-667, chain 1 of 2) above
C3b with FH CCP 1-4 R83S, sequence (P01024 749-1663, chain 2 of 3): as the sequence (P01024 749-1663, chain 2 of 2) above
C3b with FH CCP 1-4 R83S, sequence (P08603 19-1231 R83S, chain 3 of 3, further chain): as the sequence (P08603 19-1231, chain 3 of 3, further chain) above, with R65S counted along it

Substance: FH CCP 1-4 P26S (from UniProt P08603 19-1231) (domain or fragment)
- Kd (C3b [1]): 11.5 µM

Substance: FH CCP 1-4 R166W (from UniProt P08603 19-1231) (domain or fragment)
- Kd (C3b [1]): 16.7 µM
- Kd (C3b [2]): 16 to 20 µM

Substance: FH CCP 1-4 WT (from UniProt P08603 19-1231) (domain or fragment)
- Kd (C3b [1]): 10 µM

Substance: FI K441R/S525A (from UniProt P05156 19-335; P05156 340-583) (enzyme)
- RU of the TMC (62.5 nM FI variant with FH1-4) [4]: 91.2 RU
- percent of the response of inactive WT FI [4]: 94%

Substance: FI P553S/S525A (from UniProt P05156 19-335; P05156 340-583) (enzyme)
- RU of the TMC (62.5 nM FI variant with FH1-4) [4]: 62.9 RU
- percent of the response of inactive WT FI [4]: 65%

Substance: FI R406H/S525A (from UniProt P05156 19-335; P05156 340-583) (enzyme)
- RU of the TMC (62.5 nM FI variant with FH1-4) [4]: 74.6 RU
- percent of the response of inactive WT FI [4]: 77%

Substance: inactive FI (S525A FI) (from UniProt P05156 19-335; P05156 340-583) (enzyme)
- peak RU of the TMC (59 nM FH1-4 with 118 nM S525A FI) (C3b with FH CCP 1-4 T91S): 30 RU
- peak RU of the TMC (59 nM FH1-4 with 118 nM S525A FI) (C3b with FH CCP 1-4 R83S): 5 RU
- RU of the TMC (118 nM FH1-4 with 118 nM inactive FI) [6]: 60 RU
- peak RU of the TMC (59 nM FH1-4 with 118 nM S525A FI) [6]: 40 RU
- peak RU of the TMC (59 nM FH1-4 with 118 nM S525A FI) [7]: 6 RU
- peak RU of the TMC (59 nM FH1-4 with 118 nM S525A FI) (C3b with FH CCP 1-4 P26S): 29 RU
- peak RU of the TMC (59 nM FH1-4 with 118 nM S525A FI) [8]: 7 RU
- inhibition of C3b cleavage by WT FI in a fluid phase CA assay with increasing S525A FI (15% at equimolar, 20% at 2-fold molar) [9]: 20%

More lines, now with the values ahead:

- fluid phase cofactor activity with FI and C3b: reduction in C3b α’ chain degradation (% reduced compared to WT) (C3b [3]): 41
Substance: FH CCP 1-4 R232Q (from UniProt P08603 19-1231) (domain or fragment)

- Kd (C3b [1]): 9.4 µM
Substance: FH CCP 1-4 T91S (from UniProt P08603 19-1231) (domain or fragment)

- inhibition of the activity of WT FI in a fluid phase CA assay with increasing H380R FI (~20% at equimolar, 35% at 2-fold molar) [5]: 35%
Substance: H380R FI (from UniProt P05156 19-335; P05156 340-583) (enzyme)
